Data taken from US20130102527A1.

Tests used:
Experiment in all cases: cell-based or functional assay
[1] = biological target: proteasome β5 subunit (chymotrypsin-like site) in human cells and cell extracts (human) (UniProt P28074)
[2] = biological target: chymotrypsin-like site (β5 subunit) of yeast 20S proteasome (S. cerevisiae) (UniProt P30656)
[3] = biological target: trypsin-like site (β2 subunit) of yeast 20S proteasome (S. cerevisiae) (UniProt P25043)
[4] = biological target: proteasome β2 subunit (trypsin-like site) in human cells and cell extracts (human) (UniProt Q99436)
Chain of proteasome β2 subunit (trypsin-like site) in human cells and cell extracts (human) (Q99436 44-277): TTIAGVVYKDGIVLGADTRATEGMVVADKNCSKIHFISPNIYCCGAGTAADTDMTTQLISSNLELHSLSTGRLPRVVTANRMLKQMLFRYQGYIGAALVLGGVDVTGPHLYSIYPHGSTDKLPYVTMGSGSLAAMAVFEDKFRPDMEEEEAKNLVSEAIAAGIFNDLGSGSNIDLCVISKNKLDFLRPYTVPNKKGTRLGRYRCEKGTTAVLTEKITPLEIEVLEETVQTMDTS

[5] = biological target: chymotrypsin-like site (β5 subunit) of 26S proteasomes purified from rabbit muscle (rabbit) (UniProt G1T4Q9)
Chain of chymotrypsin-like site (β5 subunit) of 26S proteasomes purified from rabbit muscle (rabbit) (G1T4Q9 entry or part of it): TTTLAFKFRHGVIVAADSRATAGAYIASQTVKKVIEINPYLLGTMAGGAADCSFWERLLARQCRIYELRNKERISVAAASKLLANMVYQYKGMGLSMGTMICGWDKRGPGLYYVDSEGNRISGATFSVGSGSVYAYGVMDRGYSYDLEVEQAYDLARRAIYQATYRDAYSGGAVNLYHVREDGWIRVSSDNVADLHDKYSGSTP

[6] = biological target: caspase-like site (β1 subunit) of 26S proteasomes purified from rabbit muscle (rabbit)
[7] = biological target: trypsin-like site (β2 subunit) of 26S proteasomes purified from rabbit muscle (rabbit) (UniProt G1SWK8)
Chain of trypsin-like site (β2 subunit) of 26S proteasomes purified from rabbit muscle (rabbit) (G1SWK8 entry or part of it): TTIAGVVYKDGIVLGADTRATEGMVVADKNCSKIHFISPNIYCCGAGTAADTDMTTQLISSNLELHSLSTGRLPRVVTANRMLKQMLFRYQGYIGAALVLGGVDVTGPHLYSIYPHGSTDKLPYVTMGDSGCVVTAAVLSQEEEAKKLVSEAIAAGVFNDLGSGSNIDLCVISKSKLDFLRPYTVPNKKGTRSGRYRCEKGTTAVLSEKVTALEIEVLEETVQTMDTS

[8] = biological target: proteasome β1 subunit (caspase-like site) in human cells and cell extracts (human) (UniProt P28072)
Chain of proteasome β1 subunit (caspase-like site) in human cells and cell extracts (human) (P28072 35-239): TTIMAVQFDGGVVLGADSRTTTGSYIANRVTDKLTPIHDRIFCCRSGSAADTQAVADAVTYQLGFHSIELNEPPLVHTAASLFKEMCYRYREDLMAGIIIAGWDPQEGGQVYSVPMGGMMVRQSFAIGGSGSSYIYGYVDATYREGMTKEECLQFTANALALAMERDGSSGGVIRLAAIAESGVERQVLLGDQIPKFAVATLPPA

Chain of proteasome β5 subunit (chymotrypsin-like site) in human cells and cell extracts (human) (P28074 60-263): as the sequence (G1T4Q9 entry or part of it) above, with D197E counted along it
Chain of chymotrypsin-like site (β5 subunit) of yeast 20S proteasome (S. cerevisiae) (P30656 76-287): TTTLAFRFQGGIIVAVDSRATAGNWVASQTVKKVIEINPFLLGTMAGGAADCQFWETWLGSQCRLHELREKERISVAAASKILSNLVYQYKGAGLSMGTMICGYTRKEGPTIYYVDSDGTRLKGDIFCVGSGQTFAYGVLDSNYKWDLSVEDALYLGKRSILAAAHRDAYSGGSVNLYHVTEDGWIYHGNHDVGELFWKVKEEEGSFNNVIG
Chain of trypsin-like site (β2 subunit) of yeast 20S proteasome (S. cerevisiae) (P25043 30-261): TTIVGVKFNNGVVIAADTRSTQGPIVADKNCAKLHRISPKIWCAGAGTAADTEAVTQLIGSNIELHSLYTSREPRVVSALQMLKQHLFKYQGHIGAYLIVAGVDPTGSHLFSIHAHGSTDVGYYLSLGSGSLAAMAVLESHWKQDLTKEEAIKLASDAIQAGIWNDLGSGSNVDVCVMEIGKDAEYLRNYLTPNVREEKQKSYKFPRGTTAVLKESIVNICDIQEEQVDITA

How did the IC50 (µM) for sites: Chym-L; NCI-H929 cells, 6 h, PROTEASOMEGLO [1] turn out when “HMB-Val-Ser-Phe(4-CH2NH2)-VS (48) (peptide)” was run?
The IC50 (µM) for sites: Chym-L; NCI-H929 cells, 6 h, PROTEASOMEGLO was 13 µM.

And the IC50 (µM) for sites: Chym-L; RPMI-8226 cells, 6 h, PROTEASOMEGLO [1]?
The IC50 (µM) for sites: Chym-L; RPMI-8226 cells, 6 h, PROTEASOMEGLO was 15 µM.

What about the IC50 (µM) for yeast 20S proteasome: Chym-L [2] of the same substance?
The IC50 (µM) for yeast 20S proteasome: Chym-L was 19.3 µM.

What about the IC50 (µM) for yeast 20S proteasome: Tr-L [3] of the same substance?
The IC50 (µM) for yeast 20S proteasome: Tr-L was 1.6 µM.

What about the IC50 (µM) for sites: Tr-L; NCI-H929 cells, 6 h, PROTEASOMEGLO [4] of the same substance?
Its IC50 (µM) for sites: Tr-L; NCI-H929 cells, 6 h, PROTEASOMEGLO is 0.2 µM.

And the IC50 (µM) for sites: Tr-L; RPMI-8226 cells, 6 h, PROTEASOMEGLO [4]?
Its IC50 (µM) for sites: Tr-L; RPMI-8226 cells, 6 h, PROTEASOMEGLO is 3.2 µM.

What does the source list for “HMB-Val-Ser-Phe(4-NH2)-VS (49) (peptide)”?
IC50 (µM) for sites in 26S proteasomes: Chym-L [5]: 0.04 µM; IC50 (µM) for sites in 26S proteasomes: Casp-L [6]: 23 µM; IC50 (µM) for sites in 26S proteasomes: Tr-L [7]: 0.11 µM

What does the source list for LU-005 (peptide)?
Inhibition of active sites (% control): β5; KMS-12-BM, 0.012 µM LU-005, 1 h [1]: 16%; Inhibition of active sites (% control): β5; KMS-12-BM, 0.037 µM LU-005, 1 h [1]: 48%; Inhibition of active sites (% control): β5; KMS-12-BM, 0.11 µM LU-005, 1 h [1]: 56%; Inhibition of active sites (% control): β5; KMS-12-BM, 0.33 µM LU-005, 1 h [1]: 81%; Inhibition of active sites (% control): β5; KMS-12-BM, 1.0 µM LU-005, 1 h [1]: 95%; Inhibition of active sites (% control): β5; KMS-18, 0.037 µM LU-005, 1 h [1]: 14%; Inhibition of active sites (% control): β5; KMS-18, 0.11 µM LU-005, 1 h [1]: 47%; Inhibition of active sites (% control): β5; KMS-18, 0.33 µM LU-005, 1 h [1]: 69%; Inhibition of active sites (% control): β5; KMS-18, 1.0 µM LU-005, 1 h [1]: 85%; Inhibition of active sites (% control): β5; KMS-18, 3.0 µM LU-005, 1 h [1]: 94%; Inhibition of active sites (% control): β5; KMS-18, 9.0 µM LU-005, 1 h [1]: 97%; Inhibition of active sites (% control): β5; MM1.R, 0.004 µM LU-005, 1 h [1]: 17%; Inhibition of active sites (% control): β5; MM1.R, 0.011 µM LU-005, 1 h [1]: 31%; Inhibition of active sites (% control): β5; MM1.R, 0.043 µM LU-005, 1 h [1]: 54%; Inhibition of active sites (% control): β5; MM1.R, 0.11 µM LU-005, 1 h [1]: 76%; Inhibition of active sites (% control): β5; NCI-H929, 0.0014 µM LU-005, 1 h [1]: 22%; Inhibition of active sites (% control): β5; NCI-H929, 0.004 µM LU-005, 1 h [1]: 22%; Inhibition of active sites (% control): β5; NCI-H929, 0.011 µM LU-005, 1 h [1]: 48%; Inhibition of active sites (% control): β5; NCI-H929, 0.043 µM LU-005, 1 h [1]: 72%; Inhibition of active sites (% control): β5; NCI-H929, 0.11 µM LU-005, 1 h [1]: 86%; Inhibition of active sites (% control): β5; RPMI-8226, 0.012 µM LU-005, 1 h [1]: 16%; Inhibition of active sites (% control): β5; RPMI-8226, 0.037 µM LU-005, 1 h [1]: 45%; Inhibition of active sites (% control): β5; RPMI-8226, 0.11 µM LU-005, 1 h [1]: 49%; Inhibition of active sites (% control): β5; RPMI-8226, 0.33 µM LU-005, 1 h [1]: 62%; Inhibition of active sites (% control): β5; RPMI-8226, 1.0 µM LU-005, 1 h [1]: 82%; Inhibition of active sites (% control): β1; KMS-12-BM, 0.012 µM LU-005, 1 h [8]: -34%; Inhibition of active sites (% control): β1; KMS-12-BM, 0.037 µM LU-005, 1 h [8]: -1%; Inhibition of active sites (% control): β1; KMS-12-BM, 0.11 µM LU-005, 1 h [8]: 3%; Inhibition of active sites (% control): β1; KMS-12-BM, 0.33 µM LU-005, 1 h [8]: 6%; Inhibition of active sites (% control): β1; KMS-12-BM, 1.0 µM LU-005, 1 h [8]: 11%; Inhibition of active sites (% control): β1; KMS-18, 0.037 µM LU-005, 1 h [8]: 0%; Inhibition of active sites (% control): β1; KMS-18, 0.11 µM LU-005, 1 h [8]: 21%; Inhibition of active sites (% control): β1; KMS-18, 0.33 µM LU-005, 1 h [8]: 29%; Inhibition of active sites (% control): β1; KMS-18, 1.0 µM LU-005, 1 h [8]: 32%; Inhibition of active sites (% control): β1; KMS-18, 3.0 µM LU-005, 1 h [8]: 39%; Inhibition of active sites (% control): β1; KMS-18, 9.0 µM LU-005, 1 h [8]: 42%; Inhibition of active sites (% control): β1; MM1.R, 0.004 µM LU-005, 1 h [8]: 6%; Inhibition of active sites (% control): β1; MM1.R, 0.011 µM LU-005, 1 h [8]: 3%; Inhibition of active sites (% control): β1; MM1.R, 0.043 µM LU-005, 1 h [8]: 6%; Inhibition of active sites (% control): β1; MM1.R, 0.11 µM LU-005, 1 h [8]: 27%; Inhibition of active sites (% control): β1; NCI-H929, 0.0014 µM LU-005, 1 h [8]: -14%; Inhibition of active sites (% control): β1; NCI-H929, 0.004 µM LU-005, 1 h [8]: -7%; Inhibition of active sites (% control): β1; NCI-H929, 0.011 µM LU-005, 1 h [8]: 5.5%; Inhibition of active sites (% control): β1; NCI-H929, 0.043 µM LU-005, 1 h [8]: 15%; Inhibition of active sites (% control): β1; NCI-H929, 0.11 µM LU-005, 1 h [8]: 6%; Inhibition of active sites (% control): β1; RPMI-8226, 0.012 µM LU-005, 1 h [8]: -34%; Inhibition of active sites (% control): β1; RPMI-8226, 0.037 µM LU-005, 1 h [8]: 16%; Inhibition of active sites (% control): β1; RPMI-8226, 0.11 µM LU-005, 1 h [8]: 23%; Inhibition of active sites (% control): β1; RPMI-8226, 0.33 µM LU-005, 1 h [8]: 37%; Inhibition of active sites (% control): β1; RPMI-8226, 1.0 µM LU-005, 1 h [8]: 37%; Inhibition of active sites (% control): β2; KMS-12-BM, 0.012 µM LU-005, 1 h [4]: -21%; Inhibition of active sites (% control): β2; KMS-12-BM, 0.037 µM LU-005, 1 h [4]: -12%; Inhibition of active sites (% control): β2; KMS-12-BM, 0.11 µM LU-005, 1 h [4]: 4.7%; Inhibition of active sites (% control): β2; KMS-12-BM, 0.33 µM LU-005, 1 h [4]: 3%; Inhibition of active sites (% control): β2; KMS-12-BM, 1.0 µM LU-005, 1 h [4]: 29%; Inhibition of active sites (% control): β2; KMS-18, 0.037 µM LU-005, 1 h [4]: -13%; Inhibition of active sites (% control): β2; KMS-18, 0.11 µM LU-005, 1 h [4]: 12%; Inhibition of active sites (% control): β2; KMS-18, 0.33 µM LU-005, 1 h [4]: 24%; Inhibition of active sites (% control): β2; KMS-18, 1.0 µM LU-005, 1 h [4]: 38%; Inhibition of active sites (% control): β2; KMS-18, 3.0 µM LU-005, 1 h [4]: 50%; Inhibition of active sites (% control): β2; KMS-18, 9.0 µM LU-005, 1 h [4]: 62%; Inhibition of active sites (% control): β2; MM1.R, 0.004 µM LU-005, 1 h [4]: 6.5%; Inhibition of active sites (% control): β2; MM1.R, 0.011 µM LU-005, 1 h [4]: 5%; Inhibition of active sites (% control): β2; MM1.R, 0.043 µM LU-005, 1 h [4]: 5%; Inhibition of active sites (% control): β2; MM1.R, 0.11 µM LU-005, 1 h [4]: 23%; Inhibition of active sites (% control): β2; NCI-H929, 0.0014 µM LU-005, 1 h [4]: -9%; Inhibition of active sites (% control): β2; NCI-H929, 0.004 µM LU-005, 1 h [4]: -13%; Inhibition of active sites (% control): β2; NCI-H929, 0.011 µM LU-005, 1 h [4]: -6%; Inhibition of active sites (% control): β2; NCI-H929, 0.043 µM LU-005, 1 h [4]: 6%; Inhibition of active sites (% control): β2; NCI-H929, 0.11 µM LU-005, 1 h [4]: 11%; Inhibition of active sites (% control): β2; RPMI-8226, 0.012 µM LU-005, 1 h [4]: -21%; Inhibition of active sites (% control): β2; RPMI-8226, 0.037 µM LU-005, 1 h [4]: 1%; Inhibition of active sites (% control): β2; RPMI-8226, 0.11 µM LU-005, 1 h [4]: 3%; Inhibition of active sites (% control): β2; RPMI-8226, 0.33 µM LU-005, 1 h [4]: 13%; Inhibition of active sites (% control): β2; RPMI-8226, 1.0 µM LU-005, 1 h [4]: 22%
